The source of these data is paper PMC9335323, “Single crystal spectroscopy and multiple structures from one crystal (MSOX) define catalysis in copper nitrite reductases” (Proceedings of the National Academy of Sciences of the …, 2022).

One data set deals with O=NO. Nature of the data set: purified protein. As to conditions: conditions in supplement only.
The next data set deals with T1, Br2DNiR (Bradyrhizobium sp. ORS 375, UniProt H0SLX7).
T1 construct: gene nirK; two-domain enzyme, recombinant in E. coli with 6xHis tag cleaved by TEV; Cu-loaded T1 and T2 sites; CuNiR homotrimer, site at interface of two monomers
T1 sequence (H0SLX7 25-364): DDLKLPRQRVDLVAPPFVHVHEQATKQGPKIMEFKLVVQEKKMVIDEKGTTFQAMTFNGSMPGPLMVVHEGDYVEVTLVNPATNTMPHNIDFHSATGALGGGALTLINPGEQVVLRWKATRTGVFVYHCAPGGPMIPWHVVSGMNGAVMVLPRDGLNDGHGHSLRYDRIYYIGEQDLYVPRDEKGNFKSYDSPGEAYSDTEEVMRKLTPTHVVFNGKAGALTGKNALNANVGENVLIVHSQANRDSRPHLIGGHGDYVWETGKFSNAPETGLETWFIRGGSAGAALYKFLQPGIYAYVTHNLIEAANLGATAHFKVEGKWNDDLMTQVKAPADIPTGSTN
Nature of the data set: X-ray crystal structure (MSOX, nitrite-soaked crystal, DS1 […] Å). It counts as binding. Particulars: 200 mM NaNO2 soak, pH 5.5, 100 K; side-on at type-2 Cu, full occupancy.

Take Br2DNiR (Bradyrhizobium sp. ORS 375): in the data set on O=NO, the Km is given as 7.4 ± 1.2 µM and the kcat came to 9 ± 0.5 s⁻¹.

On to `O=NO` [nitrite], for which the “X-ray crystal structure (MSOX, nitrite-soaked crystal, DS1 1.19 Å)” value on Br2DNiR was “full occupancy nitrite is seen bound to fully occupied T2Cu in a “side-on” orientation”.
